In US20180155451A1 (published 2018) one finds He/Con_2aR data, which are given here for 28 molecules.

T1: FcγRIIa R (human, UniProt P12318 34-217)
T1 construct: extracellular domain; also called FcgRIIa R type; 2aR
T1 sequence (looked up): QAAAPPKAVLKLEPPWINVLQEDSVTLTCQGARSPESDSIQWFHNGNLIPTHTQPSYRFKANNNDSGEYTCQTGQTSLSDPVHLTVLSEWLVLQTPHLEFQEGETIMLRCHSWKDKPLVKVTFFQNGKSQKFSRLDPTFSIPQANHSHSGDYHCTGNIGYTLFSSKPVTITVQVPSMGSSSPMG

B1: GpH7-A5/GpH7-B3 variant G237_20W/GpL16-k0 (antibody, human IgG1, kappa)
heavy 1: not shown
heavy 2: not shown
light: DIVMTQSPLSLPVTPGEPASISCQASESLVHSNRNTYLHWYLQKPGQSPQLLIYKVSNRFSGVPDRFSGSGSGTDFTLKISRVEAEDVGVYYCSQNTHVPPTFGQGTKVEIERTVAAPSVFIFPPSDEQLKSGTASVVCLLNNFYPREAKVQWKVDNALQSGNSQESVTEQDSKDSTYSLSSTLTLSKADYEKHKVYACEVTHQGLSSPVTKSFNRGEC
notes: also called He Ab G237_20W
B2: GpH7-A5/GpH7-B3 variant K326_15Y/GpL16-k0 (antibody, human IgG1, kappa)
heavy 1: not shown
heavy 2: not shown
light: B1 light
notes: also called He Ab K326_15Y
B3: GpH7-A5/GpH7-B3 variant K334_05P/GpL16-k0 (antibody, human IgG1, kappa)
heavy 1: not shown
heavy 2: not shown
light: B1 light
notes: also called He Ab K334_05P
B4: GpH7-A5/GpH7-B3 variant G237_09D/GpL16-k0 (antibody, human IgG1, kappa)
heavy 1: not shown
heavy 2: not shown
light: B1 light
notes: also called He Ab G237_09D
B5: GpH7-A5/GpH7-B3 variant N325_07I/GpL16-k0 (antibody, human IgG1, kappa)
heavy 1: not shown
heavy 2: not shown
light: B1 light
notes: also called He Ab N325_07I
B6: GpH7-A5/GpH7-B3 variant L234_04F/GpL16-k0 (antibody, human IgG1, kappa)
heavy 1: not shown
heavy 2: not shown
light: B1 light
notes: also called He Ab L234_04F
B7: GpH7-A5/GpH7-B3 variant I336_18N/GpL16-k0 (antibody, human IgG1, kappa)
heavy 1: not shown
heavy 2: not shown
light: B1 light
notes: also called He Ab I336_18N
B8: GpH7-A5/GpH7-B3 variant K334_19Q/GpL16-k0 (antibody, human IgG1, kappa)
heavy 1: not shown
heavy 2: not shown
light: B1 light
notes: also called He Ab K334_19Q
B9: GpH7-A5/GpH7-B3 variant I332_06M/GpL16-k0 (antibody, human IgG1, kappa)
heavy 1: not shown
heavy 2: not shown
light: B1 light
notes: also called He Ab I332_06M
B10: GpH7-A5/GpH7-B3 variant I336_08L/GpL16-k0 (antibody, human IgG1, kappa)
heavy 1: not shown
heavy 2: not shown
light: B1 light
notes: also called He Ab I336_08L
B11: GpH7-A5/GpH7-B3 variant L328_02A/GpL16-k0 (antibody, human IgG1, kappa)
heavy 1: not shown
heavy 2: not shown
light: B1 light
notes: also called He Ab L328_02A
B12: GpH7-A5/GpH7-B3 variant G237_13S/GpL16-k0 (antibody, human IgG1, kappa)
heavy 1: not shown
heavy 2: not shown
light: B1 light
notes: also called He Ab G237_13S
B13: GpH7-A5/GpH7-B3 variant K326_08L/GpL16-k0 (antibody, human IgG1, kappa)
heavy 1: not shown
heavy 2: not shown
light: B1 light
notes: also called He Ab K326_08L
B14: GpH7-A5/GpH7-B3 variant K326_07I/GpL16-k0 (antibody, human IgG1, kappa)
heavy 1: not shown
heavy 2: not shown
light: B1 light
notes: also called He Ab K326_07I
B15: GpH7-A5/GpH7-B3 variant N325_04F/GpL16-k0 (antibody, human IgG1, kappa)
heavy 1: not shown
heavy 2: not shown
light: B1 light
notes: also called He Ab N325_04F
B16: GpH7-A5/GpH7-B3 variant L235_20W/GpL16-k0 (antibody, human IgG1, kappa)
heavy 1: not shown
heavy 2: not shown
light: B1 light
notes: also called He Ab L235_20W
B17: GpH7-A5/GpH7-B3 variant L328_09D/GpL16-k0 (antibody, human IgG1, kappa)
heavy 1: not shown
heavy 2: not shown
light: B1 light
notes: also called He Ab L328_09D
B18: GpH7-A5/GpH7-B3 variant K326_20W/GpL16-k0 (antibody, human IgG1, kappa)
heavy 1: not shown
heavy 2: not shown
light: B1 light
notes: also called He Ab K326_20W
B19: GpH7-A5/GpH7-B3 variant K334_10E/GpL16-k0 (antibody, human IgG1, kappa)
heavy 1: not shown
heavy 2: not shown
light: B1 light
notes: also called He Ab K334_10E
B20: GpH7-A5/GpH7-B3 variant H268_11K/GpL16-k0 (antibody, human IgG1, kappa)
heavy 1: not shown
heavy 2: not shown
light: B1 light
notes: also called He Ab H268_11K
B21: GpH7-A5/GpH7-B3 variant H268_12R/GpL16-k0 (antibody, human IgG1, kappa)
heavy 1: not shown
heavy 2: not shown
light: B1 light
notes: also called He Ab H268_12R
B22: GpH7-A5/GpH7-B3 variant H268_20W/GpL16-k0 (antibody, human IgG1, kappa)
heavy 1: not shown
heavy 2: not shown
light: B1 light
notes: also called He Ab H268_20W
B23: GpH7-A5/GpH7-B3 variant L328_14T/GpL16-k0 (antibody, human IgG1, kappa)
heavy 1: not shown
heavy 2: not shown
light: B1 light
notes: also called He Ab L328_14T
B24: GpH7-A5/GpH7-B3 variant L234_10E/GpL16-k0 (antibody, human IgG1, kappa)
heavy 1: not shown
heavy 2: not shown
light: B1 light
notes: also called He Ab L234_10E
B25: GpH7-A5/GpH7-B3 variant L328_10E/GpL16-k0 (antibody, human IgG1, kappa)
heavy 1: not shown
heavy 2: not shown
light: B1 light
notes: also called He Ab L328_10E
B26: GpH7-A5/GpH7-B3 variant L328_13S/GpL16-k0 (antibody, human IgG1, kappa)
heavy 1: not shown
heavy 2: not shown
light: B1 light
notes: also called He Ab L328_13S
B27: GpH7-A5/GpH7-B3 variant K326_18N/GpL16-k0 (antibody, human IgG1, kappa)
heavy 1: not shown
heavy 2: not shown
light: B1 light
notes: also called He Ab K326_18N
B28: GpH7-A5/GpH7-B3 variant H268_03V/GpL16-k0 (antibody, human IgG1, kappa)
heavy 1: not shown
heavy 2: not shown
light: B1 light
notes: also called He Ab H268_03V

The experiment addresses T1, FcγRIIa R. The experiment is described as follows: SPR Biacore; vs GpH7-A5/GpH7-B3/GpL16-k0 =100. (Surface plasmon resonance follows binding to a sensor surface in real time, without labels.)
Turning to B1, the He/Con_2aR was 138 % of control.

Consider B2, for which the He/Con_2aR was 136 % of control. Regarding B3, the He/Con_2aR is 103 % of control. For B4 the value was 156 % of control. Regarding B5, the He/Con_2aR is 133 % of control. Regarding B6, the He/Con_2aR was 104 % of control. As to B7, the He/Con_2aR was 104 % of control.

As to B8, the He/Con_2aR is 109 % of control. As to B9, the He/Con_2aR is 109 % of control. B10: the He/Con_2aR is 110 % of control. As for B11, the He/Con_2aR was 117 % of control.

With B12, the He/Con_2aR is 121 % of control. For B13 the value was 137 % of control; for B14, 147 % of control.

B15: the He/Con_2aR is 120 % of control. The same measure for B16: 131 % of control; for B17: 119 % of control.

Take B18: the He/Con_2aR is 131 % of control. The same measure for B19: 106 % of control. As for B20, the He/Con_2aR is 100 % of control.

For the molecule B21, the He/Con_2aR was 105 % of control. With B22, the He/Con_2aR is 113 % of control.

With B23, the He/Con_2aR was 119 % of control. Take B24: the He/Con_2aR is 112 % of control. For B25 the value was 105 % of control; for B26, 117 % of control; for B27, 115 % of control. B28: the He/Con_2aR was 109 % of control.
